Experimental data taken from publication PMC5793090 (Toxins, 2017).
Values joined by “and” are separate entries in the source; they are usually repeats but may differ in a detail not shown here. Identical values can stand only once.

B1: CNF1 (720–1014), GST-tag removed (domain or fragment)
chain: SIESTSKSNFQKLSRGNIDVLKGRGSISSTRQRAIYPYFEAANADEQQPLFFYIKKDRFDNHGYDQYFYDNTVGLNGIPTLNTYTGEIPSDSSSLGSTYWKKYNLTNETSIIRVSNSARGANGIKIALEEVQEGKPVIITSGNLSGCTTIVARKEGYIYKVHTGTTKSLAGFTSTTGVKKAVEVLELLTKEPIPRVEGIMSNDFLVDYLSENFEDSLITYSSSEKKPDSQITIIRDNVSVFPYFLDNIPEHGFGTSATVLVRVDGNVVVRSLSESYSLNADASEISVLKVFSKKF
notes: also called CNF1 catalytic unit
B2: Lu12-Fc (Fc fusion)
chain: EVRLSVPPLVEVMRGKSVILDCTPTGTHDHYMLEWFLTDRSGARPRLASAEMQGSELQVTMHDTRGRSPPYQLDSQGRLVLAEAQVGDERDYVCVVRAGAAGTAEATARLNVFAKPEATEVSPNKGTLSVMEDSAQEIATCNSRNGNPAPKITWYRNGQRLEVPVEMNPEGYMTSRTVREASGLLSLTSTLYLRLRKDDRDASFHCAAHYSLPEGRHGRLDSPTFH
B3: Recombinant human extracellular rLu/BCAM with Fc-tag (Fc fusion)
chain: EVRLSVPPLVEVMRGKSVILDCTPTGTHDHYMLEWFLTDRSGARPRLASAEMQGSELQVTMHDTRGRSPPYQLDSQGRLVLAEAQVGDERDYVCVVRAGAAGTAEATARLNVFAKPEATEVSPNKGTLSVMEDSAQEIATCNSRNGNPAPKITWYRNGQRLEVPVEMNPEGYMTSRTVREASGLLSLTSTLYLRLRKDDRDASFHCAAHYSLPEGRHGRLDSPTFHLTLHYPTEHVQFWVGSPSTPAGWVREGDTVQLLCRGDGSPSPEYTLFRLQDEQEEVLNVNLEGNLTLEGVTRGQSGTYGCRVEDYDAADDVQLSKTLELRVAYLDPLELSEGKVLSLPLNSSAVVNCSVHGLPTPALRWTKDSTPLGDGPMLSLSSITFDSNGTYVCEASLPTVPVLSRTQNFTLLVQGSPELKTAEIEPKADGSWREGDEVTLICSARGHPDPKLSWSQLGGSPAEPIPGRQGWVSSSLTLKVTSALSRDGISCEASNPHGNKRHVFHFGTVSPQTSQA
notes: also called rLu/BCAM-Fc; recombinant Lu/BCAM; source: bought: Hölzel Diagnostika Handels GmbH

How the values were obtained:
Lu12-Fc = assay: SPR
[1] = biological target: B3; assay: small-angle X-ray scattering (SAXS); conditions: both partners purified
[2] = biological target: B3; assay: SEC; conditions: both partners purified
[3] = biological target: T1, GST-CNF1 (full-length Cytotoxic Necrotizing Factor 1 of Escherichia coli as GST fusion) (Escherichia coli, UniProt Q47106 1-1014, DyLight488 Maleimide label in the flow cytometry experiments only); assay: SPR
T1 chain: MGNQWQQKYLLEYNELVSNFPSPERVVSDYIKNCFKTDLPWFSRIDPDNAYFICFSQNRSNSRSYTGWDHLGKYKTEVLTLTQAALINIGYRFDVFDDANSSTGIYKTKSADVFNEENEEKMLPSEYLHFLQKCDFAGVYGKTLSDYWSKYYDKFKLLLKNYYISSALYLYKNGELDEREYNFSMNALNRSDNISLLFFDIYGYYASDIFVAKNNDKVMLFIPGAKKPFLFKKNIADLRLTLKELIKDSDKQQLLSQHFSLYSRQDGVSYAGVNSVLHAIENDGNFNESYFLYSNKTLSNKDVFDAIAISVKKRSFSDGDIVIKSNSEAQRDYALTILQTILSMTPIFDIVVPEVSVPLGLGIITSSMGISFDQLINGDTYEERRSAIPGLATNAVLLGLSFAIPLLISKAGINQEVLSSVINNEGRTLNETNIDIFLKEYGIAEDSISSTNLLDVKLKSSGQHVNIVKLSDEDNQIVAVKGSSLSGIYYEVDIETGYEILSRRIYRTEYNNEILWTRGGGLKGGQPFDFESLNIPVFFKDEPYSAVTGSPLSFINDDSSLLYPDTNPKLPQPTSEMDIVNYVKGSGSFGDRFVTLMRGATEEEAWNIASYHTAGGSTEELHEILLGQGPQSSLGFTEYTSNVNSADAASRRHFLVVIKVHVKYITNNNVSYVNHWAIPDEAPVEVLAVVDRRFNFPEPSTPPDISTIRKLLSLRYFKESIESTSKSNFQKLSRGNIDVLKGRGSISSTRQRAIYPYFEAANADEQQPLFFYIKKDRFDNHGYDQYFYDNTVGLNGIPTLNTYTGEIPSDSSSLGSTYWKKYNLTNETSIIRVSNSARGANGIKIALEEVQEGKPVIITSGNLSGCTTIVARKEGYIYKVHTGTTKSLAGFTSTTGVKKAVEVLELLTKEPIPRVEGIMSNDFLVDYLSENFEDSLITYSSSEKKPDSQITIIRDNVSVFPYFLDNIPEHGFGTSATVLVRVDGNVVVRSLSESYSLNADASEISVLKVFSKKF

[4] = biological target: T2, GST-CNF1 (full-length Cytotoxic Necrotizing Factor 1 of Escherichia coli as GST fusion) (Escherichia coli, UniProt Q47106 1-1014, DyLight488 Maleimide label in the flow cytometry experiments only); assay: far-Western, overlay or dot blot; CNF proteins spotted on a nitrocellulose membrane, incubated with 5 µM rLu/BCAM in TBST for 30 min, then blocked with 5% milk; bound rLu/BCAM detected with an anti-Lu/BCAM antibody; conditions: both partners purified
T2 construct: also called full-length CNF1; full toxin
T2 sequence: T1 chain

SEC = biological target: the molecule itself; assay: SEC

Molecule: GST-CNF1 (full-length Cytotoxic Necrotizing Factor 1 of Escherichia coli as GST fusion) (from UniProt Q47106 1-1014) (natural protein)
- Kd (Lu12-Fc): 2 nM

Molecule: B1
- stoichiometry N [1]: 1 CNF1 molecules per rLu/BCAM assembly and 2 CNF1 molecules per rLu/BCAM assembly
- stoichiometry N [2]: 6 Lu/BCAM per CNF1

Molecule: B2
- koff [3]: 3e-05 s⁻¹

Molecule: B3
- binding result [4]: binds
- stoichiometry N (SEC): 6
